Test results reported in patent US20230257473A1 (TENEOBIO, published 2023).

Assays:
[1] = biological target: recombinant BCMA (R&D Systems, catalog no. 193-BC) (human) (UniProt Q02223); assay: competitive ELISA, plate-bound BCMA; Ab 0.020 ng/mL; competitor APRIL 250.00 ng/mL
[2] = biological target: recombinant BCMA (R&D Systems, catalog no. 193-BC) (human) (UniProt Q02223); assay: competitive ELISA, plate-bound BCMA; Ab 0.020 ng/mL; competitor APRIL 125.00 ng/mL
[3] = biological target: recombinant BCMA (R&D Systems, catalog no. 193-BC) (human) (UniProt Q02223); assay: competitive ELISA, plate-bound BCMA; Ab 2.000 ng/mL; competitor APRIL 125.00 ng/mL
[4] = biological target: recombinant BCMA (R&D Systems, catalog no. 193-BC) (human) (UniProt Q02223); assay: competitive ELISA, plate-bound BCMA; Ab 0.200 ng/mL; competitor APRIL 15.63 ng/mL
[5] = biological target: recombinant BCMA (R&D Systems, catalog no. 193-BC) (human) (UniProt Q02223); assay: competitive ELISA, plate-bound BCMA; Ab 20.000 ng/mL; competitor APRIL 125.00 ng/mL
[6] = biological target: recombinant BCMA (R&D Systems, catalog no. 193-BC) (human) (UniProt Q02223); assay: competitive ELISA, plate-bound BCMA; Ab 200.000 ng/mL; competitor APRIL 31.25 ng/mL
[7] = biological target: BCMA on BCMA-expressing cells (H929 / NCI-H929, MM1.S, U266, Daudi) (human) (UniProt Q02223); assay: flow cytometry on H929 cells; antibody 0.000 ng/ml (background)
Sequence of BCMA on BCMA-expressing cells (H929 / NCI-H929, MM1.S, U266, Daudi) (human) (Q02223 whole entry): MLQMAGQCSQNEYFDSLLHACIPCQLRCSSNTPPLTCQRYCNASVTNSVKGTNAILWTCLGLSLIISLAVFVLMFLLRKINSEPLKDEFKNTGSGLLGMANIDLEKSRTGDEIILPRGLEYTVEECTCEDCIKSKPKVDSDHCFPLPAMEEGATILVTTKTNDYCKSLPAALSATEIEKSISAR

[8] = biological target: BCMA on BCMA-expressing cells (H929 / NCI-H929, MM1.S, U266, Daudi) (human) (UniProt Q02223); assay: flow cytometry on H929 cells; antibody 200.000 ng/ml
[9] = biological target: recombinant BCMA (R&D Systems, catalog no. 193-BC) (human) (UniProt Q02223); assay: competitive ELISA, plate-bound BCMA; Ab 0.200 ng/mL; competitor APRIL 31.25 ng/mL
[10] = biological target: recombinant BCMA (R&D Systems, catalog no. 193-BC) (human) (UniProt Q02223); assay: competitive ELISA, plate-bound BCMA; Ab 200.000 ng/mL; competitor APRIL 62.50 ng/mL
[11] = biological target: BCMA on BCMA-expressing cells (H929 / NCI-H929, MM1.S, U266, Daudi) (human) (UniProt Q02223); assay: flow cytometry on MM1.S cells; antibody 0000 ng/ml (background)
[12] = biological target: recombinant BCMA (R&D Systems, catalog no. 193-BC) (human) (UniProt Q02223); assay: competitive ELISA, plate-bound BCMA; Ab 2.000 ng/mL; competitor APRIL 500.00 ng/mL
[13] = biological target: BCMA on BCMA-expressing cells (H929 / NCI-H929, MM1.S, U266, Daudi) (human) (UniProt Q02223); assay: flow cytometry on H929 cells; antibody 3.130 ng/ml
[14] = biological target: BCMA on BCMA-expressing cells (H929 / NCI-H929, MM1.S, U266, Daudi) (human) (UniProt Q02223); assay: flow cytometry on H929 cells; antibody 6.250 ng/ml
[15] = biological target: BCMA on BCMA-expressing cells (H929 / NCI-H929, MM1.S, U266, Daudi) (human) (UniProt Q02223); assay: flow cytometry on MM1.S cells; antibody 3.130 ng/ml
[16] = biological target: recombinant BCMA (R&D Systems, catalog no. 193-BC) (human) (UniProt Q02223); assay: competitive ELISA, plate-bound BCMA; Ab 20.000 ng/mL; competitor APRIL 7.81 ng/mL
[17] = biological target: BCMA on BCMA-expressing cells (H929 / NCI-H929, MM1.S, U266, Daudi) (human) (UniProt Q02223); assay: flow cytometry on H929 cells; antibody 0.781 ng/ml
[18] = biological target: recombinant BCMA (R&D Systems, catalog no. 193-BC) (human) (UniProt Q02223); assay: competitive ELISA, plate-bound BCMA; Ab 200.000 ng/mL; competitor APRIL 250.00 ng/mL
[19] = biological target: recombinant BCMA (R&D Systems, catalog no. 193-BC) (human) (UniProt Q02223); assay: competitive ELISA, plate-bound BCMA; Ab 20.000 ng/mL; competitor APRIL 250.00 ng/mL
[20] = biological target: BCMA on BCMA-expressing cells (H929 / NCI-H929, MM1.S, U266, Daudi) (human) (UniProt Q02223); assay: flow cytometry on MM1.S cells; antibody 0.195 ng/ml
[21] = biological target: recombinant BCMA (R&D Systems, catalog no. 193-BC) (human) (UniProt Q02223); assay: competitive ELISA, plate-bound BCMA; Ab 200.000 ng/mL; competitor APRIL 125.00 ng/mL
[22] = biological target: BCMA on BCMA-expressing cells (H929 / NCI-H929, MM1.S, U266, Daudi) (human) (UniProt Q02223); assay: flow cytometry on H929 cells; antibody 25.000 ng/ml
[23] = biological target: BCMA on BCMA-expressing cells (H929 / NCI-H929, MM1.S, U266, Daudi) (human) (UniProt Q02223); assay: flow cytometry on H929 cells; antibody 0.391 ng/ml
[24] = biological target: recombinant BCMA (R&D Systems, catalog no. 193-BC) (human) (UniProt Q02223); assay: competitive ELISA, plate-bound BCMA; Ab 200.000 ng/mL; competitor APRIL 15.63 ng/mL
[25] = biological target: recombinant BCMA (R&D Systems, catalog no. 193-BC) (human) (UniProt Q02223); assay: competitive ELISA, plate-bound BCMA; Ab 200.000 ng/mL; competitor APRIL 500.00 ng/mL
[26] = biological target: recombinant BCMA (R&D Systems, catalog no. 193-BC) (human) (UniProt Q02223); assay: competitive ELISA, plate-bound BCMA; Ab 2.000 ng/mL; competitor APRIL 62.50 ng/mL

Sequence of recombinant BCMA (R&D Systems, catalog no. 193-BC) (human) (Q02223 5-51 limits assumed): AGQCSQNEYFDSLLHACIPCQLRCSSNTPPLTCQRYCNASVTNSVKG

B1: AntiX**BCMA_F7E_F7E (bispecific antibody, part only; not given: other chains of three-chain format, not shown: another chain or arm of the molecule)
tandem VH: QVQLVESGGGLVQPGGSLRLSCVASGFTFSSNAMSWVRQAPGKGLEWVSAISGSGDYTHYSDSVKGRFTISRDNSKNTLYLQMNSLRAEDTAVYYCAKEVPGGPLVDFDSRGQGTLVTVSSGGGGSGGGGSQVQLVESGGGLVQPGGSLRLSCVASGFTFSSNAMSWVRQAPGKGLEWVSAISGSGDYTHYSDSVKGRFTISRDNSKNTLYLQMNSLRAEDTAVYYCAKEVPGGPLVDFDSRGQGTLVTVSS
B1 was tested, and the A450-A570 [1] was 0.0618, the A450-A570 [2] was 0.0557 and the A450-A570 [3] was 0.108. It also gave an A450-A570 [4] of 0.0587, an A450-A570 [5] of 0.637 and an A450-A570 [6] of 2.42. The MFI [7] was 5000, the MFI [8] was 52900 and the A450-A570 [9] was 0.0601. For the same binder, the A450-A570 [10] was 2.44, the MFI [11] was 2990 and the A450-A570 [12] was 0.0732. The MFI [13] was 5140, the MFI [14] was 5220 and the MFI [15] was 2070. For the same binder, the A450-A570 [16] was 0.789, the MFI [17] was 5020 and the A450-A570 [18] was 2.21. For the same binder, the A450-A570 [19] was 0.413, the MFI [20] was 2010 and the A450-A570 [21] was 2.3. It also gave an MFI [22] of 6610, an MFI [23] of 5040 and an A450-A570 [24] of 2.37. The A450-A570 [25] was 1.41 and the A450-A570 [26] was 0.098.

B2: anti-BCMA heavy chain-only antibody (UniAb) with the VH of SEQ ID NO: 12 (antibody, V domains shown)
VH: QVQLVESGGGLVQPGGSLRLSCVASGFTFSSNAMSWVRQAPGKGLEWVSAISGSGDYTHYSDSVKGRFTISRDNSKNTLYLQMNSLRAEDTAVYYCAKEVPGGPLVDFDSRGQGTLVTVSS
notes: Heavy chain-only antibody from UniRat; also called Clone ID No: 316302
B2 gave an A450-A570 [1] of 0.0617, an A450-A570 [2] of 0.064 and an A450-A570 [3] of 0.0736. For the same binder, the A450-A570 [4] was 0.0661, the A450-A570 [5] was 0.203 and the A450-A570 [6] was 2.29. For the same binder, the MFI [7] was 5000, the MFI [8] was 14100 and the A450-A570 [9] was 0.062. The A450-A570 [10] was 2.07, the MFI [11] was 2990 and the A450-A570 [12] was 0.0711. It also gave an MFI [13] of 5170, an MFI [14] of 5240 and an MFI [15] of 2110. The A450-A570 [16] was 0.495, the MFI [17] was 5060 and the A450-A570 [18] was 0.969. For the same binder, the A450-A570 [19] was 0.148, the MFI [20] was 2070 and the A450-A570 [21] was 1.37. It also gave an MFI [22] of 5480, an MFI [23] of 5030 and an A450-A570 [24] of 2.4. The A450-A570 [25] was 0.482 and the A450-A570 [26] was 0.0834.
